# Measured values published in patent US20250334575A1 (UNIVERSITY OF VERMONT AND STATE AGRICULTURE COLLEGE, published 2025).
# How the values were obtained:
# [1] = target: FcγRIIa (low affinity immunoglobulin gamma Fc region receptor II-a) (human) (UniProt P12318); assay: co-immunoprecipitation with FcγRIIa from activated platelets, mass spectrometry of the excised band
# [2] = target: FcγRIIa (low affinity immunoglobulin gamma Fc region receptor II-a) (human) (UniProt P12318); assay: cell-based or functional assay
# [3] = target: activated GP IIb-IIIa (human, UniProt P08514 32-1039; P05106 27-788); assay: cell-based or functional assay
# activated GP IIb-IIIa, sequence (P08514 32-1039, chain 1 of 2): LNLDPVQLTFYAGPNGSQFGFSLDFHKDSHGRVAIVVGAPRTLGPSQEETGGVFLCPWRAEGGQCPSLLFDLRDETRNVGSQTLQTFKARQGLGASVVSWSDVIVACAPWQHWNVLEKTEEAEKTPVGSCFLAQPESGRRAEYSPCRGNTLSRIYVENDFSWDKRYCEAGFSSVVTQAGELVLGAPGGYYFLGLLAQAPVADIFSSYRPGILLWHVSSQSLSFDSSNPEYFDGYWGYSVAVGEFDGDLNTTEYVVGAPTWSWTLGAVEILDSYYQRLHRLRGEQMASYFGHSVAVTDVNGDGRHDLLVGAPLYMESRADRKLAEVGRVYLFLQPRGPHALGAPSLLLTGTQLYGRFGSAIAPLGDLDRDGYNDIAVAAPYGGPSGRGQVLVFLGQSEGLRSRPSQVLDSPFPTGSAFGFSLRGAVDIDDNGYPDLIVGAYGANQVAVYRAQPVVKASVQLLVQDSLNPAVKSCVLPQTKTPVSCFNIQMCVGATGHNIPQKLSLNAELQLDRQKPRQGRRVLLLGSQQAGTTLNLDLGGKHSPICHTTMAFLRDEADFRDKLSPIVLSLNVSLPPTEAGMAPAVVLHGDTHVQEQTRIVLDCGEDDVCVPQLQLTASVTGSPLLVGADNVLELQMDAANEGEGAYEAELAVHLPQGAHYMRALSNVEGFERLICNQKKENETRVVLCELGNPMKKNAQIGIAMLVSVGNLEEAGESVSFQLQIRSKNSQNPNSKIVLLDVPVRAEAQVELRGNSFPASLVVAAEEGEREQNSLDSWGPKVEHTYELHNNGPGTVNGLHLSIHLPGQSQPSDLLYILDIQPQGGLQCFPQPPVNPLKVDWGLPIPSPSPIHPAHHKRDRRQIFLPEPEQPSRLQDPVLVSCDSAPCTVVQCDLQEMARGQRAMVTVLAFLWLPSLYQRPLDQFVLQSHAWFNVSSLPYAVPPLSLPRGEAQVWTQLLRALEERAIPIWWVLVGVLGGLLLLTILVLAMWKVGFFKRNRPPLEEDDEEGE
# activated GP IIb-IIIa, sequence (P05106 27-788, chain 2 of 2): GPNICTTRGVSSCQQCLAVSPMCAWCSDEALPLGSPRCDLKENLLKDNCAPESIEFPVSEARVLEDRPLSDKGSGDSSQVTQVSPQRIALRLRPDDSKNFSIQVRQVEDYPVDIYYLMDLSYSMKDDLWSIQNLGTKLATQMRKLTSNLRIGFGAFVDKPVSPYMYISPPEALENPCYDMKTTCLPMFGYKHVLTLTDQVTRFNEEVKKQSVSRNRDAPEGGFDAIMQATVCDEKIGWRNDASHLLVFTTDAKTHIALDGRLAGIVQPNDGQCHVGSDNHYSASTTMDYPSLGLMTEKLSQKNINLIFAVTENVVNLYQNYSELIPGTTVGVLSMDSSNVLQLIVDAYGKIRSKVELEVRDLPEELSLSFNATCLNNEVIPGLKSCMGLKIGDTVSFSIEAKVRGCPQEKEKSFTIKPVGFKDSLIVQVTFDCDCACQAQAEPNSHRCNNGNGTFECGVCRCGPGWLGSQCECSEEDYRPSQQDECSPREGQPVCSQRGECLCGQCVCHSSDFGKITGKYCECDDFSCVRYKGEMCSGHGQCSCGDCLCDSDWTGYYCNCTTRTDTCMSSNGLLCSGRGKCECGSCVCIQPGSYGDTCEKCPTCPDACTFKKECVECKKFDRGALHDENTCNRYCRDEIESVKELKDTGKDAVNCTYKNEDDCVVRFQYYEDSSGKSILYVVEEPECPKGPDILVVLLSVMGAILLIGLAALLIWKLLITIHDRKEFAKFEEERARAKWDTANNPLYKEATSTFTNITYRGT
# FcγRIIa (low affinity immunoglobulin gamma Fc region receptor II-a) (human), sequence (P12318 34-317 limits assumed, form in doubt): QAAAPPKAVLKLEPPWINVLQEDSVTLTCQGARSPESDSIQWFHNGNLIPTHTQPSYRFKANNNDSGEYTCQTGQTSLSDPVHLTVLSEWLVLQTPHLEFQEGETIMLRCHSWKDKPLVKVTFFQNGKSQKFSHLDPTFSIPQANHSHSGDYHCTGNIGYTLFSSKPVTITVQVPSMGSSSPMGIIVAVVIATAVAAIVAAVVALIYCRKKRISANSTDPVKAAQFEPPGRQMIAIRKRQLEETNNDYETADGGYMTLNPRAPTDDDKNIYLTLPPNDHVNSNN
# filamin, sequence (P21333 2-2647): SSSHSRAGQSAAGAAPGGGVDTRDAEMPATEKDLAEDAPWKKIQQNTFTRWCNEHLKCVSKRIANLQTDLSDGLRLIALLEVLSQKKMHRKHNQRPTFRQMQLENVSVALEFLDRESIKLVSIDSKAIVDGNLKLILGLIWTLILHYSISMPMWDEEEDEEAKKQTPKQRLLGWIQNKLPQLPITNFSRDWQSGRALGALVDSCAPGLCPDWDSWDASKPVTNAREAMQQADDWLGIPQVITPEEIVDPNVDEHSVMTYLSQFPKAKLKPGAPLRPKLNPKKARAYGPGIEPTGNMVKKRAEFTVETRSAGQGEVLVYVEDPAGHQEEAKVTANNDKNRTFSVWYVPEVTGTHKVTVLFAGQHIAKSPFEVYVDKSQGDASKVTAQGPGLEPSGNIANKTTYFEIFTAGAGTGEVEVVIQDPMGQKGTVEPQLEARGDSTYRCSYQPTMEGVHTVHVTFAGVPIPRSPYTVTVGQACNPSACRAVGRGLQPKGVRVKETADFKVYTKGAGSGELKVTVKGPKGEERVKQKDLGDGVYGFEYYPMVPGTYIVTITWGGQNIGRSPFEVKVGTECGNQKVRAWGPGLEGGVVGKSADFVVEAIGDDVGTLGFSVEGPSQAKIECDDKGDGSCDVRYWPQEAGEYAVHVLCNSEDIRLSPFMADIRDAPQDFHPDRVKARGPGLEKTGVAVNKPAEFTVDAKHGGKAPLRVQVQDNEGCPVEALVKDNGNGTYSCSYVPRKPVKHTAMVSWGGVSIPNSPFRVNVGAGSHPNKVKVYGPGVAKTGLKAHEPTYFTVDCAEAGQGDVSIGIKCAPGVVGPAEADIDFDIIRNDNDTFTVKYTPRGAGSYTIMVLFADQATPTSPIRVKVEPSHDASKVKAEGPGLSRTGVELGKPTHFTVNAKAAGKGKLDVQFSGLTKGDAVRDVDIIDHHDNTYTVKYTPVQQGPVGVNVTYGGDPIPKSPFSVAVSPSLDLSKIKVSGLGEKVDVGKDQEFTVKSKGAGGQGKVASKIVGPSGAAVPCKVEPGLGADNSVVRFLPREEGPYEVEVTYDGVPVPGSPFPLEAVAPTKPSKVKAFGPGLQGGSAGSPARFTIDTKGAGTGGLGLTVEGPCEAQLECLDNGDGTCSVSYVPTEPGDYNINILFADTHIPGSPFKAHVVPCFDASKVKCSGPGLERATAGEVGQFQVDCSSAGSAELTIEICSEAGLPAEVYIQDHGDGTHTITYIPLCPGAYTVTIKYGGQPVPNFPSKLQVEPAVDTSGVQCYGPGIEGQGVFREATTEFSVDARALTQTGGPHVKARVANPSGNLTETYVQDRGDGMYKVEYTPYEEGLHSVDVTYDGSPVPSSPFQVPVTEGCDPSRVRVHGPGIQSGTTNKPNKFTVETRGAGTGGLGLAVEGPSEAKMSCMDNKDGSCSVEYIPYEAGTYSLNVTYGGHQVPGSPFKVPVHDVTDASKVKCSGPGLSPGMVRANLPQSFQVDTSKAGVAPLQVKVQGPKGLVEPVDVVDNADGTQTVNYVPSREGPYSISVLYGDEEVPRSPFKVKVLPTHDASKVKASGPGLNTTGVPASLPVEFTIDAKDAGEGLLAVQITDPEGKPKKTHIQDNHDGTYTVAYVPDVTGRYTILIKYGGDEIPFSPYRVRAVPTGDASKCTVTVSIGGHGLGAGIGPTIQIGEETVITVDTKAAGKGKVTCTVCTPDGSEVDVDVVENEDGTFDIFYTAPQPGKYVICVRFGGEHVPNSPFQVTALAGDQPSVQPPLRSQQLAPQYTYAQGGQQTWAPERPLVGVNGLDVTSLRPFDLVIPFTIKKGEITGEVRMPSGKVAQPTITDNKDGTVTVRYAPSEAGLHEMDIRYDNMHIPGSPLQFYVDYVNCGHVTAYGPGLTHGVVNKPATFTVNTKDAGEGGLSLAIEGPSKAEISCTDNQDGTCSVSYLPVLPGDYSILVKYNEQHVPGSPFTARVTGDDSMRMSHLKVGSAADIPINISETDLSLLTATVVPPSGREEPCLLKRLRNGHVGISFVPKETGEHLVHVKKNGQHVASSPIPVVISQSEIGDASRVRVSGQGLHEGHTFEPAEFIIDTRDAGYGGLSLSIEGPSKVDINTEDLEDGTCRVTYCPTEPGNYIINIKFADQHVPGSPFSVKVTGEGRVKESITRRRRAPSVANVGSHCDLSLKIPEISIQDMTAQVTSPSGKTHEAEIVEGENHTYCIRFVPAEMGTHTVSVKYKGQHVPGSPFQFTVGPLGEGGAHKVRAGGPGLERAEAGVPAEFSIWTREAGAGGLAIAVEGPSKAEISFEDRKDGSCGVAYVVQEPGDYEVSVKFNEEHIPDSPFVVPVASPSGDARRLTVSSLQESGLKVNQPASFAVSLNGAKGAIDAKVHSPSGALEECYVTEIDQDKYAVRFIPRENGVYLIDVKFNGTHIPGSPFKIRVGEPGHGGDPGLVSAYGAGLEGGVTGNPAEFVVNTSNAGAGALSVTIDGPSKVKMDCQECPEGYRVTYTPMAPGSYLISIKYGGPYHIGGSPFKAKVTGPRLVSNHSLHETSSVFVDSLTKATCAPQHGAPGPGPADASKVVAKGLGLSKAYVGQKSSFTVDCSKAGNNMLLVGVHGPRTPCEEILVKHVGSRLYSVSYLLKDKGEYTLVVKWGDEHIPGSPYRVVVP
Molecule,share of the protein content of the 90 kDa band co-immunoprecipitated with FcγRIIa [1] [%],share of the protein content of the 75 kDa band co-immunoprecipitated with FcγRIIa [1] [%],share of the protein content of the 55 kDa band co-immunoprecipitated with FcγRIIa [1] [%],other results
filamin,1,–,–,–
gelsolin (from UniProt P06396 1-731),6,–,–,–
nexilin (from UniProt Q0ZGT2 1-675),–,3,–,–
coagulation Factor V (from UniProt P12259 29-2224),–,4,–,–
SRC kinase Lyn (from UniProt P07948 2-512) (enzyme),–,–,1,–
actin,–,1,3,–
"fibrinogen (other, human) chain 1: ADSGEGDFLAEGGGVRGPRVVERHQSACKDSDWPFCSDEDWNYKCPSGCRMKGLIDEVNQDFTNRINKLKNSLFEYQKNNKDSHSLTTNIMEILRGDFSSANNRDNTYNRVSEDLRSRIEVLKRKVIEKVQHIQLLQKNVRAQLVDMKRLEVDIDIKIRSCRGSCSRALAREVDLKDYEDQQKQLEQVIAKDLLPSRDRQHLPLIKMKPVPDLVPGNFKSQLQKVPPEWKALTDMPQMRMELERPGGNEITRGGSTSYGTGSETESPRNPSSAGSWNSGSSGPGSTGNRNPGSSGTGGTATWKPGSSGPGSTGSWNSGSSGTGSTGNQNPGSPRPGSTGTWNPGSSERGSAGHWTSESSVSGSTGQWHSESGSFRPDSPGSGNARPNNPDWGTFEEVSGNVSPGTRREYHTEKLVTSKGDKELRTGKEKVTSGSTTTTRRSCSKTVTKTVIGPDGHKEVTKEVVTSEDGSDCPEAMDLGTLSGIGTLDGFRHRHPDEAAFFDTASTGKTFPGFFSPMLGEFVSETESRGSESGIFTNTKESSSHHPGIAEFPSRGKSSSYSKQFTSSTSYNRGDSTFESKSYKMADEAGSEADHEGTHSTKRGHAKSRPVRGIHTSPLGKPSLSP chain 2: QGVNDNEEGFFSARGHRPLDKKREEAPSLRPAPPPISGGGYRARPAKAAATQKKVERKAPDAGGCLHADPDLGVLCPTGCQLQEALLQQERPIRNSVDELNNNVEAVSQTSSSSFQYMYLLKDLWQKRQKQVKDNENVVNEYSSELEKHQLYIDETVNSNIPTNLRVLRSILENLRSKIQKLESDVSAQMEYCRTPCTVSCNIPVVSGKECEEIIRKGGETSEMYLIQPDSSVKPYRVYCDMNTENGGWTVIQNRQDGSVDFGRKWDPYKQGFGNVATNTDGKNYCGLPGEYWLGNDKISQLTRMGPTELLIEMEDWKGDKVKAHYGGFTVQNEANKYQISVNKYRGTAGNALMDGASQLMGENRTMTIHNGMFFSTYDRDNDGWLTSDPRKQCSKEDGGGWWYNRCHAANPNGRYYWGGQYTWDMAKHGTDDGVVWMNWKGSWYSMRKMSMKIRPFFPQQ chain 3: YVATRDNCCILDERFGSYCPTTCGIADFLSTYQTKVDKDLQSLEDILHQVENKTSEVKQLIKAIQLTYNPDESSKPNMIDAATLKSRKMLEEIMKYEASILTHDSSIRYLQEIYNSNNQKIVNLKEKVAQLEAQCQEPCKDTVQIHDITGKDCQDIANKGAKQSGLYFIKPLKANQQFLVYCEIDGSGNGWTVFQKRLDGSVDFKKNWIQYKEGFGHLSPTGTTEFWLGNEKIHLISTQSAIPYALRVELEDWNGRTSTADYAMFKVGPEADKYRLTYAYFAGGDAGDAFDGFDFGDDPSDKFFTSHNGMQFSTWDNDNDKFEGNCAEQDGSGWWMNKCHAGHLNGVYYQGGTYSKASTPNGYDNGIIWATWKTRWYSMKKTTMKIIPFNRLTIGEGQQHHLGGAKQAGDV",80,24,33,fold induction of ADP-induced activation of platelets (surface expression of P-selectin) after addition of fibrinogen [2]: 1.5 fold; fold induction of ADP-induced activation of platelets by added fibrinogen after pretreatment with IV.3 (100 µg/ml) [2]: 0.9 fold; fold induction of ADP-induced activation of platelets by added fibrinogen in the presence of tirofiban (0.5 µg/ml) [3]: 1.2 fold
"coagulation Factor XIII (enzyme, human, UniProt P00488 2-732, looked up) SETSRTAFGGRRAVPPNNSNAAEDDLPTVELQGVVPRGVNLQEFLNVTSVHLFKERWDTNKVDHHTDKYENNKLIVRRGQSFYVQIDFSRPYDPRRDLFRVEYVIGRYPQENKGTYIPVPIVSELQSGKWGAKIVMREDRSVRLSIQSSPKCIVGKFRMYVAVWTPYGVLRTSRNPETDTYILFNPWCEDDAVYLDNEKEREEYVLNDIGVIFYGEVNDIKTRSWSYGQFEDGILDTCLYVMDRAQMDLSGRGNPIKVSRVGSAMVNAKDDEGVLVGSWDNIYAYGVPPSAWTGSVDILLEYRSSENPVRYGQCWVFAGVFNTFLRCLGIPARIVTNYFSAHDNDANLQMDIFLEEDGNVNSKLTKDSVWNYHCWNEAWMTRPDLPVGFGGWQAVDSTPQENSDGMYRCGPASVQAIKHGHVCFQFDAPFVFAEVNSDLIYITAKKDGTHVVENVDATHIGKLIVTKQIGGDGMMDITDTYKFQEGQEEERLALETALMYGAKKPLNTEGVMKSRSNVDMDFEVENAVLGKDFKLSITFRNNSHNRYTITAYLSANITFYTGVPKAEFKKETFDVTLEPLSFKKEAVLIQAGEYMGQLLEQASLHFFVTARINETRDVLAKQKSTVLTIPEIIIKVRGTQVVGSDMTVTVEFTNPLKETLRNVWVHLDGPGVTRPMKKMFREIRPNSTVQWEEVCRPWVSGHRKLIASMSSDSLRHVYGELDVQIQRRPSM",1,38,–,fold induction of ADP-induced activation of platelets by added Factor XIII in the presence of tirofiban (0.5 µg/ml) [3]: 0.8 fold
